According to patent publication EP1481685A1:
Where two headings read alike, the source gives them in different places.

Assays:
Test in all cases: cell-based or functional assay
[1] = biological target: adenylyl cyclase (AC) in rat spinal cord lysates / membranes (major isoforms AC type 5 and 6)
[2] = biological target: adenylyl cyclase (AC) in rat dorsal root ganglia (DRG) lysates (predominant isoforms AC type 4 and 6)
[3] = biological target: adenylyl cyclase (AC) in rat spinal cord lysates / membranes (major isoforms AC type 5 and 6); remark: listed apart in the source

inhibition of Gαs-stimulated AC activity, spinal cord lysates of control animals, 30 nM PAM (% inhibition at 30 nM) [1]: 50 | inhibition of Gαs-stimulated AC activity, DRG lysates, 30 nM PAM (% inhibition at 30 nM) [2]: 32 | inhibition of Gαs-stimulated AC activity, spinal cord lysates from animals treated 1 hour with formalin, 30 nM PAM (% inhibition at 30 nM) [3]: 25 | inhibition of Gαs-stimulated AC activity, spinal cord lysates from rats 96 hours after zymosan injection, 30 nM PAM (% inhibition at 30 nM) [3]: 70 | inhibition of Gαs-stimulated AC activity, spinal cord lysates of control animals, 30 nM PAM (% inhibition at 30 nM) [3]: 49 | inhibition of Gαs-stimulated AC activity, spinal cord preparations of zymosan-treated animals [3]: 75 % inhibition
Substance: PAM (Protein Associated with Myc), full length, purified from HeLa cells (from UniProt O75592 1-4678)
